According to patent EP1379283B1 (Palatin Technologies, Inc., dated 2002):
Square brackets hold non-standard residues; d marks the D form. Nle = CCCC[C@H](N)C(=O)O

What was measured:
hMC4-R = target: T1, hMC4-R (human, UniProt P32245 1-332); test: assay not described for this value
T1 construct: whole, on cells; Membrane preparation; also called MCR-4

[1] = target: T2, MC1-R of B-16 mouse melanoma cells (mouse, UniProt Q01727 1-315); test: assay not described for this value
T2 construct: whole, on cells; Membrane preparation; also called MCR-1
T2 sequence (Q01727 whole entry): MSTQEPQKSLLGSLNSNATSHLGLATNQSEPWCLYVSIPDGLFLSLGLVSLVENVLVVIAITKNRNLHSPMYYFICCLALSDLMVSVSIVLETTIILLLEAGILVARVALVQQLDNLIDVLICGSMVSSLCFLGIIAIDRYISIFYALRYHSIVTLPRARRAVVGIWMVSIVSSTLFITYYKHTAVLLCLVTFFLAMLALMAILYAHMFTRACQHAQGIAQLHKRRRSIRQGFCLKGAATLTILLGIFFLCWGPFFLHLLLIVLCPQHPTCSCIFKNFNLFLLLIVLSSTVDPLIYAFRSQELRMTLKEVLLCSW

T1 sequence (P32245 whole entry): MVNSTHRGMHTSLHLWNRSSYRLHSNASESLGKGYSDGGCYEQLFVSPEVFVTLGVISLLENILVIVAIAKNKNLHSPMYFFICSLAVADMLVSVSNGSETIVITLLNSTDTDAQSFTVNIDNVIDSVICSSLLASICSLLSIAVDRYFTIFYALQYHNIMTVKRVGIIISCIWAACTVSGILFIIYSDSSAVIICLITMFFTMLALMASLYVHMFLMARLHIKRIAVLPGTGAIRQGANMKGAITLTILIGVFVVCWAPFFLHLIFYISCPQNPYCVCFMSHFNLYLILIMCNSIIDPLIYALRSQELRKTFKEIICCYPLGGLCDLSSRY

Ki (hMC4-R): 2 µM
Ki [1]: 0.1 µM
B1: Ac-Nle-Ala-His-D-Phe-Arg-Trp-NH2 (peptide)
peptide: Ac-[Nle]AH[dF]RW-NH2
notes: Linear parent peptide, not complexed to a metal; also called parent melanocortin peptide
